Reference: article PMC3874162 (Nucleic Acids Research, 2013)

B1: Cdc13-MOB (middle OB-fold domain, residues 344-496) (domain or fragment, S. cerevisiae, UniProt P32797 344-496, looked up)
chain: KAISYEQLSLASVGSVERLEGKIVGMNPPQFASINEFKYCTLKLYFTQLLPNVPDKVLVPGVNCIEIVIPTRERICELFGVLNCQSDKISDILLLEKPDRISVEVERILWDNDKTASPGMAVWSLKNISTDTQAQAQVQVPAQSSASIDPSRT
B2: Cdc13 (full-length S. cerevisiae Cdc13) (natural protein, UniProt P32797 1-924, looked up)
chain: MDTLEEPECPPHKNRIFVSSSKDFEGYPSKAIVPVQFVALLTSIHLTETKCLLGFSNFERRGDQSQEDQYLIKLKFKDRGSERLARITISLLCQYFDIELPDLDSDSGASPTVILRDIHLERLCFSSCKALYVSKHGNYTLFLEDIKPLDLVSVISTISTKSTNSSKHSSSELISECDLNNSLVDIFNNLIEMNRDEKNRFKFVKLIHYDIELKKFVQDQQKVLSQKSKAAAINPFFVPNRLGIPYIESQNEFNSQLMTLNVDEPTTDISNMGEEMHDSADPIEDSDSSTTSSTGKYFSSKSYIQSQTPERKTSVPNNWHDDDSGSKRKRKLSFHSPNASSIRKAISYEQLSLASVGSVERLEGKIVGMNPPQFASINEFKYCTLKLYFTQLLPNVPDKVLVPGVNCIEIVIPTRERICELFGVLNCQSDKISDILLLEKPDRISVEVERILWDNDKTASPGMAVWSLKNISTDTQAQAQVQVPAQSSASIDPSRTRMSKMARKDPTIEFCQLGLDTFETKYITMFGMLVSCSFDKPAFISFVFSDFTKNDIVQNYLYDRYLIDYENKLELNEGFKAIMYKNQFETFDSKLRKIFNNGLRDLQNGRDENLSQYGIVCKMNIKVKMYNGKLNAIVRECEPVPHSQISSIASPSQCEHLRLFYQRAFKRIGESAISRYFEEYRRFFPIHRNGSHLAKLRFDEVKHEPKKSPTTPALAEHIPDLNADVSSFDVKFTDISSLLDSSARLPRPQQTHKSNTLYSCEGRIIAIEYHASDLCFHITNELPLLQTRGLAPERVLQLHIITSKNFAYFFNRSSAYLQRQPLEEKYTQLAQFLGHSFKFNITSSLTLFPDTTVALQIWCPIECTFRELQQQLAHPKVAAAPDSGSLDCAINATVNPLRLLAAQNGVTVKKEEDNDDDAGAVPTS

Columns and labels:
[1] = biological target: the molecule itself; experiment: SEC-MALS
[2] = biological target: the molecule itself; experiment: native gel or EMSA

Protein	stoichiometry N [1]	Kd [2]
B1	2	
B2	2	5.1 nM
